B1: POU domain, class 3, transcription factor 2, residues 262 to 338; numbered along this chain, P20265 (parent)
chain: EDTPTSDDLEQFAKQFKQRRIKLGFTQADVGLALGTLYGNVFSQTTICRFEALQLSFKNMCKLKPLLNKWLEEADSS
B2: RUN and FYVE domain-containing protein 1, residues 639 to 698; numbered along this chain, Q96T51 (parent)
chain: WLKDDEATHCRQCEKEFSISRRKHHCRNCGHIFCNTCSSNELALPSYPKPVRVCDSCHTL

Variants of: B1
Assay: abundance fitness (aPCA) (normalised: wild type 0, dead -1); higher = more abundant; growth selection in yeast, the domain comes from the species named
Settings: Homo sapiens

Abundance fitness of substitutions, site by site:
E1: F 0.231, M 0.05, S -0.164, I -0.066, P 0.085, Q -0.088, W -0.191, T -0.006, C -0.035, L -0.109, N 0.124, K -0.105, D -0.014, G -0.031, Y -0.177, A -0.108
D2: K -0.031, S 0.013, C -0.124, H 0.015, R -0.03, V -0.176, I 0.023, T 0.039, E -0.047, F -0.133, Q 0.054, P -0.153
P4: A -0.03
T3: C 0.009, F -0.142, S -0.042, I 0.094, Y -0.029, A -0.365, Q -0.091, E -0.218, N -0.203, D -0.324, W -0.202, G -0.342, L -0.086, P -0.205, R -0.086, M 0.117, K -0.023

Variants of: B2
Assay: as above
Settings: Homo sapiens

Abundance fitness of substitutions, site by site:
L44: N -0.388, C -0.389, K -0.384, Q -0.3, R -0.445, V -0.236, T -0.127, A -0.3, D 0.138, P -0.326, H -0.295, F -0.196, M -0.077, G -0.166, Y -0.271, W -0.375, E -0.376, S -0.454
K49: D -0.001, S -0.09, N 0.012, I -0.32, V -0.14, F -0.342, W -0.327, G -0.057, Q -0.192, P -0.72, E -0.083, Y -0.34, H -0.11, R 0.016, C -0.133, M -0.298, A -0.327, T -0.212
H58: F -0.105, C -0.365, G -0.203, A -0.1, K -0.091, M -0.109, T -0.226, W 0.022, P -0.667, N -0.242, E -0.062, R -0.147, Q 0.065, V 0.037, S -0.179, I -0.157, L -0.114, D -0.495
L42: P -0.606, I 0.214, S 0.096, W -0.014, D 0.184, N -0.317, A 0.11, V 0.092, Y -0.151, H 0.118, T -0.071, R 0.227, M -0.046, G -0.026, C 0.045, Q 0.295, F 0.034
A43: P 0.001, N 0.034, M 0.021, Y -0.366, C -0.128, S -0.188, I 0.019, V 0.008, T -0.045, Q -0.008, L 0.058, G -0.124, K -0.071, R -0.054, W -0.405
T59: V 0.127, A 0.263, K 0.144, C -0.051, D 0.062, F -0.207, P -0.281, I -0.033, H -0.148, Y -0.183, Q 0.328, M 0.019, E 0.026, N -0.058, G 0.161, S 0.052, L -0.048
V53: I -0.385
V51: A -0.047, T 0.184, G -0.55, R -0.474, K -0.636, I -0.249, E -0.301, M -0.244, N -0.695, F -0.571, H -0.945, Y -0.562, C -1.01, Q -0.17, D -0.879, L -0.353, S -0.345

— the Human Domainome abundance scans (Beltran et al. 2025)
